Test: yeast display, Sf9 membrane polyspecificity reagent, FACS + sequencing; frameworks hold sequencing errors
Summary of the method: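 Synthetic nanobody libraries on Saccharomyces cerevisiae BJ5465 were galactose-induced for 36–48 hours, stained 1 hour at 4 °C with 10% biotinylated, detergent-solubilized Sf9 membrane reagent and enriched on streptavidin microbeads. FACS then separated cells into low and high (top ~1%) gates by anti-HA (expression) and streptavidin (reagent binding) fluorescence. Genes were colony-PCR amplified, MiSeq 2 × 250 sequenced and CDR-length filtered. A clone's polyreactivity label is that of its gate of origin.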

Sequence	polyreactivity (PSR sort gate)
QVQLVESGGGLVQAGGSLRLSCAASGRTFRFYAMGWSRQAPGKEREMVAAISYSGGSTYYADSVKGRFTISRDNAKNTVYLQMNSLKPEDTAVYYCAAPYYRSTTSYDYWGQGTQVTVSS	high polyreactivity
QGQLVESGGGEVQAGGSLRLSCAASGFTFGSNAMGWYRPAPGKERELVAAISSTGSTYYADSVKGRFTLSRDNAKNTVYVQMNSLKPEDPAVYYCNADSDTPRYDYWGQGTQVTVSS	low polyreactivity
QVQLVESGGGLVQAGGSLRLSCAASGFTFTYYTMGWYRQAPGKERELVAGISRSGGSTYYADSVKGRFTISRDNAKNTVYLQMNSLKPEDTAVYYCAAVVRSYSDRYDYWGQGTQVTVSS	high polyreactivity
QVQLVESGGGLVQAGGSLRLSCAASGYTFDAYAMGWYRQAPGKERELVAAITTNGGSTYYADSVKGRFTISRDNAKNTVFLQMNSLIPEDTAVFYCKAEYWYEGRYPYDYWGQGTQVTVSS	low polyreactivity
QVQLVESGGGLVQEGGSLRLSCAASGSTFLKYDMGWYRQAPGNERELVAAISWDGGSTYYADSVKGRFTISRDNAKNTVYLQMNSLKPEDTAVYYCNADYDVYLTICYYYGEFDYWGQGTQVTVSS	low polyreactivity
QVQLVESGGGLVQAGGSLRLSCAASGFTFNRYDMGWYRQAPGKERELVAAITGGSGSTYYADSVKGRFTISRDNAKNTVYLQMHSLKPEDTAVYDCAARRYRLSTPEFNYWGQGTQVTVSS	high polyreactivity
QVQLVESGGGLVQAGGSLRLSCAASGRTFYSYAMGWYRQAPGKEREWVATITNGDTTNYADSVKGRFTISRDNAKNTVYLQMNSLKPEDTAVYYCAKDISPGYDEYDYWGQGTQVTVSS	low polyreactivity
QVQLVDSGGGLVQAGGSLRLSCAASGRIFGAYTMGWYRQAPGKEREFVADITSGGSTDYADSVKGRFTISRDNAKNTVSLQMNSLKPEDTAVYYCAAGGWVASLYLYDYWGHGTQVTVSS	low polyreactivity
QVQLVESGGGLVQAGGSLRLSCAASGSTFGAYAMGWYRQAPGKERELVAAISRSGASTYYADSVKGRFTISRDNAKNTVYLQMNSLKPVDTAVYYCAAKIVSRYRVIYDYWGQGTQVTVSS	high polyreactivity
QVQLVESGGGLVQAGGSLRISCAASGRIFVSNAAMGWYIQAPGKESELVAAITSRGGRTTYADSVKGRFTSSRDNAKNTVYLQMNSLKPEDTAVYYCAARVRGYDWVRGSPFHHNYWGQGTQVTVSS	high polyreactivity
QVQLVESGGGLVQAGGSLRLSCAASGSTFVIYDMGWYRQAPGKERELVAAISYSGGSTYYADSVKGRFTISRDNAKNTVYLQMNSLKPEDTAVYYCNAGVLVLLYAYLPSEQEYWGQGTQVTVSS	low polyreactivity
QVQLVESGGGLVQAGGSLRLSCAASGRTFSSNAMGWYRQAPGKEREFVAVISSGGSTYYADSVKGRFTISRDNAKNTVYLQMNSLKPEDTAVYYCAAAVGPSGYYYESDYWGQGTQVTVSS	high polyreactivity
QVQLVLLGGGLVQAGGTLRVSCAPSGSIIYWKDRGWYRQAPGKERELDASITASGSSTYYADSVKGRFTISRDNGKNTVYLQMNSLLPEDTAVYYCNTSVFTYYDSAYDYWGQGTQVTVSS	low polyreactivity
QVQLVESGGGLVHAGGSHRLSCAASGIIVYVNAMGLYRQAPGKERELVSAITFGGDSTYYADSVKGRFTISRDTAKNTVYLQMNSLKPEDTAVYFCATDGDPAYPELEYWGQGTQVTVSS	low polyreactivity
QVQLVESGGGIVQAGGSLRLSCAASGNIFSYYAMGWYRQAPGKERELVAAITYRSDSTYYADSVKGRFTISRDNAKNTVYLQMNSLKPEDTAVYYCATEPWYGWGFGYWGQGTQVTVSS	low polyreactivity
QVQLVESGGGLVQAGGSLRLSCSPSGSIFVSYTMGWYRQAPGKERELVAAISSGGSTYYADSVKGRFTITRDNAKNTVYLQMNSLKPEDTAVYYCARRLTREYDYWGQGTQVTVSS	low polyreactivity
QVQLVESGGGLVQAGGSLRLSCAASGSNIGWYAMGSYRQAPGKERELVAAISSSDGSTYYADSVKGRFTISRDNAKNTVYLQMNSLKPEDTAVYYCATDSDFTYAQYDYWGQGTQVTVSS	low polyreactivity
QVQLEESGGGLVQAGVSLRLSCAASGSTFGYYAMGWSRQAPGKERELVAAITSGGTTNYADYVKGRFTISRYNEKNTVYLQMYSLKPEDTAVYYCNAVGTFVRYWTDGRDGVTYDFWGQGTQVTVSS	low polyreactivity
QVQLVESGGGLVQAGGSLRLSCAASGFTYIYYAMGWYRQAPGKERELVAAITSGGRTYYADSVKGRFTISRDNAKNTVYLQMNSLKPEDTAVYYCAKRFTLPLSEYDYWGQGTQVIVSS	high polyreactivity
QRQLVESGGGLVQAGGRLRLSCAASGMTVWDYAMGWYRHATGKERQLVAAISGSGARTYYADSVKWRFTISRDTAKNTVYLQMNSLNPEDTAVYYCAARAVRATAKYEYWGQGTQVTVSS	high polyreactivity
QVQLVESGGGLVQAGGILRLSCAASGRIFGSYAMGWYRQAPGKERELVAVITKRGDSTYYADSVKGRFTISRDNAKNTVYLQMNSLKPEDTAVYYCNARVYPGYSFWAVFGYDYWGQGTQVTVSS	low polyreactivity
QVQLVESGGGLVQSGGSLRLSCAASGRIFKLYAMGWYRQAPGKERELVAAITRTGTSTYYADSVKGRFTISRDNAKNTVYLQMNSLKPEDTAVYYCNKTTLLTVEYDYWGQGTQVTVSS	low polyreactivity

Sequence	polyreactivity (PSR sort gate)
QVQLVESGGGLVQAGGSLRESCAASGRIFYGNAMGCYRQAPVKERELVAAISSGTSTNYADSVKGRFTISRDNAKNTVYLEMNSLKPEDTGVYYCAAGSYSRYLYSLYFDFDYWGQGTQVTVSS	low polyreactivity
QVQLVESGGGLVQAGGSLRLSCAASGRTFVYYAMGWYRQAPGKERELVARISYSGGSTYYADSVKGRFTISRDNAKKTVYLQMNSLKPEDTAVYYCSQAGYSPVYGYWGQGTQVSVSS	high polyreactivity
QVQLVDSGGGLVQAGGSLRLSCAASGSTFSVYAMVWYRQAPGKERELVAAISKRGTSTYYADSLKGRFTISRDYAKNTLYLQKNSLKPEDTAVYYCAAEAYRPSPFYYWGQGTQVTFSS	high polyreactivity
QVQLVESGGGLVQAGGSLRLSCAASGSTFPFYAMGWYRQAPGKERELVATISSDGSTNYADSVKGRFTISRDNAKNTVYLQMNSLKPEDTAVYYCNALARWWAYYDYGYWGQGTQVTVSS	low polyreactivity
QVQLVESGGGLLQAGGSLRLSCAASGSTFYPYAMRWYRQAPGKERELVAAISSGGSTSYADSVKGRFTISRDNAKNTVYLQMNCLKPEDTAVYYCNGSSPGAVPVYDYDYWGQGTQVTVSS	low polyreactivity
QFHLVESGGGLVQAGGSLRLSCAASGRIFSEYAMGWYRQAHGKEMELVASISTSGGSTYYADSVKGRFTISRDNAKNTVYLQKYSLKPEDTEVYYCNVAYYRYPSYTYGYDHWGQGTQVTVSS	high polyreactivity
QVQLVESGGGLVQAGGSLRLSCAASGSIFWRNAIGWYRQAPRKERELVAAISRVGSTNYADSVKGRFTISRDNAKNTVYLQMTSLKPEDTAVYYCAKDSIWRVYEYDYWGQGTQVTVSS	low polyreactivity
QVQLVESGGGLVQAGGSLRLSCAASGYIFHRYVMGWYRQAPGKERELVASISWSGGSTYYADSVKGRFTISRDNAKNTVYLQMTSLKPEDTAVYYCGALSPYRRGYYWGQGTQVTVSS	high polyreactivity
QVQLVESCGGLVQAGGSLRLSCAASGSIFPPYAMGWYRQAPGKERELVATITIRGGSTYYADSVKGRFTISRDNAKNTVYLQMNSLKPEDTAVYYCAADYTKYYRRYYYWGQGTQVTVSS	high polyreactivity
QVQLVESGGGLVQAGGSLRLSCAASGFTFSSYAMGWYRQAPGKERELVAAITRSGGNTYYADSVKGRFTISRDYAKNTVYLQMNSLKPEDTAVYDCAAPGKGISPSHYYWGQGTQVTVSS	high polyreactivity
QVQLVESGGGLVQAGGSLRLSCAASGITFYDYAMGWYRQAPGKEREFFARITASGARTYYADSVKGRFTISRDNAKNTVYLQMNSLKPEDTAVYYCAVRGGRPSRRHYDKYDYWGQGTQVTVSS	low polyreactivity
QDQLVESGGGLVQAGGSLRLSCAASGFIFNYYGMGWYRQAPGKERELVATISRGASTNYADSVKGRFTISRDNAKNTVYLQMNSLKPEDTAVYYCAKDYGDWGQGTQVTVSS	low polyreactivity
QVQLVESGGGLVQAGGSLSLSCAASGSIFLRNAMGWYRQAPGKERELVAAITWDSGDTYYADSVKGRFTISRDHAKNTVYLQMNSLKPEDTAVYYCNTLGLSSDWGQGTQVTVSS	low polyreactivity
QVQLVESGGGLVQAGCRLRLSCAASGLIFGYYHMGWYRQAPGKERELVAAITTGDSTYYADSVKGRFTISRDNAKNTVYLQMNSLKPEDTAVYYCAAYPVWYYEYDYWGQGTQVTVSS	low polyreactivity
QVQLVESGGGLVQAGGSLRLSCAASGRIFRPYAMGWYRQAPGKERELVASINYSGGSTYADSVKGRFTISRDNAKNTVYLQMNSLKPEDTAVYYCNVYRDGFRYTAWYTGQTFDYWGQGTQVTVSS	low polyreactivity
QVQLVESGGGVVQAGGSLRLSCAASVSIFDDYAMGWYRQAPGKERELVASISRTGRTYYADSVKGRFTISRDNAKNTVYLQMNSLKPEDTAVYYCAATRYAPYRRYYYWGQGTQVTVSS	high polyreactivity
QVQLVESGGGLVQAGGSLRLSCAASGFIFYYYTMGWYRPAPGKERELVAAISRGGGSTYYADSVKGRFTISRDNAKNTVYLQMNSLKPEDTAVYYCALTDRRLGAHQGDYWGQGTQVTVSS	high polyreactivity
QVQLVESGGGLVQAGGSLRLICAASGSTFFYYAMGWYRQAPGKERELVARISGGGSTNYADSVKGRFTISRDNAKNTVYLKMNSLNPEDTAVYYCAADRYHYYRYSYGRYGYWGQCTQVTVSS	high polyreactivity
QVQLVESGGGLVQAGGSLRLSCAASGRTFRNYAMGWYRQAPGKERELVAGITYSGGSTFYADSVKGRFTISRDNAKNTVYLQMNSLKPEDAAVYYCAAVYVPYYWLGRSRGLDYWGQGTQVTVSS	high polyreactivity
QVQLEESGGGLVQAGGSLRLSCAASGRIFTWYTMGWYRQAPGKEREFVAAITRSGTSTYYADSVKGRFTISRDNAKNTVYLQMNSLKPEDTAVYYCAAGKPRSKYWYDYWGQGTQVTVSS	high polyreactivity
QVQLVESGGGLVQAGGSLRLSCAASGSTFIVYAMGWYRQAPGKERELVAAISLDGGSTYYADSVKGRFTISRDNAKNTVYLQMNSLKPEDTAVYYCNADYYANSITYDSWGQGTQVTVSS	low polyreactivity
